Source: publication PMC4670574 (2016)
Square brackets hold non-standard residues; d marks the D form. Ends that are not written are not given here. pT = C[C@@H](OP(=O)(O)O)[C@H](N)C(=O)O

Biological target: T1, pCdc25C phosphopeptide (Homo sapiens)
T1 chain: EQPL[pT]PVTDL
Test: ITC

B1: Pin1 isolated PPIase domain PPIase domain (protein)
chain: PARVRCSHLLVKHSQSRRPSSWRQEKITRTKEEALELINGYIQKIKSGEEDFESLASQFSDCSSAKARGDLGAFSRGQMQKPFEDASFALRTGEMSGPVFTDSGIHIILRTE
- Kd: > 1000 µM
